Where two headings read alike, the source gives them in different places.
What was measured:
Phos15739 [1] = target: T1, Phos15739 (Drosophila melanogaster, UniProt Q9VYT0); type: biochemical, D. melanogaster; details: for substrate quality for Phos15739 (in words): isoprenoid mono- and pyrophosphate substrates
Phos2680 = Phos2680 (Drosophila melanogaster, UniProt Q9W4W5); assay: In vitro inhibition of Phos2680, p-NPP as substrate
Phos15739 [2] = target: T1, Phos15739; assay: In vitro inhibition of Phos15739, p-NPP as substrate; details: for inhibitor quality for Phos15739 (in words): p-NPP as substrate
[3] = target: hsEH N-terminal phosphatase; details: cited from earlier work
[4] = tested on: N-terminal domain of hsEH; details: FPP as substrate of N-terminal domain of hsEH; ref [8]; cited from earlier work
Phos15739D28A = assay: Enzymatic activity of variant Phos15739D28A with p-NPP and FPP; type: biochemical, D. melanogaster; details: same reaction conditions as positive control Phos15739; data not shown
[5] = substrate: CC(C)=CCC/C(C)=C/CC/C(C)=C/CO[P@@](=O)(O)OP(=O)(O)O; assay: purified protein, by the assay type; details: other: substrate of Phos15739; IPP, GPP, FPP values are apparent kinetics
[6] = substrate: C=C(C)CCOP(=O)(O)O; assay: purified protein, by the assay type
[7] = substrate: CC(C)=CCC/C(C)=C/COP(=O)(O)O; assay: purified protein, by the assay type; type: biochemical, D. melanogaster; details: other: substrate of Phos15739; IPP, GPP, FPP values are apparent kinetics
[8] = substrate: CC(C)=CCC/C(C)=C/CC/C(C)=C/COP(=O)(O)O; assay: purified protein, by the assay type; type: biochemical, D. melanogaster; details: other: substrate of Phos15739; IPP, GPP, FPP values are apparent kinetics
[9] = substrate: C=C(C)CCO[P@@](=O)(O)OP(=O)(O)O; assay: purified protein, by the assay type; type: biochemical, D. melanogaster; details: other: substrate of Phos15739; IPP, GPP, FPP values are apparent kinetics
[10] = substrate: O=[N+]([O-])c1ccc(OP(=O)(O)O)cc1; assay: p-NPP phosphatase activity of Phos15739; type: biochemical, D. melanogaster; details: other: p-NPP as substrate of Phos15739, pH 6.0, 2 mM Mg2+
[11] = substrate: O=[N+]([O-])c1ccc(OP(=O)(O)O)cc1; assay: p-NPP phosphatase activity of Phos2680; type: biochemical, D. melanogaster; details: other: p-NPP as substrate of Phos2680, pH 6.0, 2 mM Mg2+
[12] = substrate of Phos15739, IPP, GPP, FPP values are apparent kinetics
[13] = other: substrate of Phos15739, IPP, GPP, FPP values are apparent kinetics

Molecule: CC(C)=CCC/C(C)=C/COP(=O)(O)OP(=O)(O)O [GPP]
- substrate quality for Phos15739 (in words) (Phos15739 [1]): weak substrates
- Kcat (s^−1±S.E.) (Phos15739 [1]; [12]): 0.78 ± 0.09 s⁻¹
- Vmax (μmol.min^−1mg^−1±S.E.) (Phos15739 [1]; [12]): 1.4 ± 1.5 µmol/min/mg

Molecule: CC(C)=CCC/C(C)=C/CC/C(C)=C/CSCC(=O)O [S-Farnesyl-thioacetic acid]
- IC50 (Phos2680): 5.1 ± 1.4 µM
- IC50 (Phos15739 [2]): > 100 µM
- inhibitor quality for Phos15739 (in words) (Phos15739 [2]): poor inhibitors

Molecule: CC(=O)N[C@@H](CSC/C=C(\C)CCC=C(C)C)C(=O)O [N-acetyl-S-geranyl-L-cysteine]
- IC50 (Phos2680): > 100 µM
- IC50 (Phos15739 [2]): 6.3 ± 1.7 µM

Molecule: C=C(C)CCOP(=O)(O)OP(=O)(O)O [IPP]
- substrate quality for Phos15739 (in words) (Phos15739 [1]): weak substrates

Molecule: C[C@H](CCC(=O)NCCS(=O)(=O)O)[C@H]1CC[C@H]2[C@@H]3CC[C@@H]4C[C@H](OS(=O)(=O)O)CC[C@]4(C)[C@H]3CC[C@]12C [Taurolithocholic acid 3-sulfate, taurolithocholic acid 3-sulfate]
- IC50 (Phos2680): > 100 µM
- IC50 ([3]; ref [12]): 5 µM
- IC50 (Phos15739 [2]): > 100 µM
- inhibitor quality for Phos15739 (in words) (Phos15739 [2]): poor inhibitors

Molecule: CC(C)=CCC/C(C)=C/CC/C(C)=C/COP(=O)(O)OP(=O)(O)O [FPP, farnesyl pyrophosphate]
- turnover number [4]: 0.25 ± 0.07 s⁻¹
- enzymatic activity of Phos15739D28A with substrate (Phos15739D28A): No activity was detected

Molecule: CC(C)=CCC/C(C)=C/CC/C(C)=C/CC/C(C)=C/COP(=O)(O)OP(=O)(O)O [GGPP, Geranylgeranyl pyrophosphate]
- substrate quality for Phos15739 (in words) (Phos15739 [1]): not good substrates

Molecule: CC(=O)N[C@@H](CSC/C=C(\C)CC/C=C(\C)CCC=C(C)C)C(=O)O [N-acetyl-S-farnesyl-L-cysteine]
- IC50 (Phos2680): > 100 µM
- IC50 ([3]; ref [8]): 0.84 µM
- IC50 (Phos15739 [2]): 28 ± 6.8 µM

Molecule: O=[N+]([O-])c1ccc(OP(=O)(O)O)cc1 [p-NPP, para-nitrophenyl phosphate]
- enzymatic activity of Phos15739D28A with substrate (Phos15739D28A): No activity was detected

Molecule: CC(C)=CCC/C(C)=C/CC/C(C)=C/CC/C(C)=C/COP(=O)(O)O [GGMP]
- substrate quality for Phos15739 (in words) (Phos15739 [1]): not good substrates

Molecule: CC(=O)N[C@@H](CSC/C=C(\C)CC/C=C(\C)CC/C=C(\C)CCC=C(C)C)C(=O)O [N-acetyl-S-geranylgeranyl-L-cysteine]
- IC50 (Phos2680): 14 ± 1.9 µM
- IC50 (Phos15739 [2]): 4.4 ± 2 µM

B1: Phos15739 (Drosophila melanogaster) (protein)
chain: MAKPQHILQLSQEQRSSVVDSFDRVVSDIDGVLWTFEQSIPRAADGYAALEQMGKHLTFLTNNSVRTSEQCVKLFAKIGMQVHPEQIWHPAKSIVSYLQSIKFEGLIYIIASQSFKTVLREAGFQLLDGPNEFIEESYASLAEHIFGKEPVRAVIIDVDFNLTSPKILRAHLYLRHPECMLIEGATDRLLPVAKEVNIVGPGAFASILVEASGKQPITLGKPGRELGDLLVEHYQIVQPSRVLMIGDMLAQDVSFGRQCGFQTLLVLSGGCSKEELLAETDPQRIPDYYADSVADVAQMLGEAPKSRV
- Km [5]: 48 ± 13 µM
- Vmax [5]: 18 ± 1.8 µmol/min/mg
- kcat [5]: 10 ± 1.04 s⁻¹
- kcat/Km [5]: 2.1 X 10^5 M^−1 s^−1
- Km [6, 13]: 84 ± 27 µM
- Vmax [6, 13]: 18 ± 2.7 µmol/min/mg
- kcat [6, 13]: 10 ± 1.5 s⁻¹
- kcat/Km [6, 13]: 120000 M⁻¹ s⁻¹
- Km [7]: 81 ± 6.7 µM
- Vmax [7]: 250 ± 9.3 µmol/min/mg
- kcat [7]: 140 ± 5.3 s⁻¹
- kcat/Km [7]: 1.8e+06 M⁻¹ s⁻¹
- Km [8]: 160 ± 20 µM
- Vmax [8]: 85 ± 4.2 µmol/min/mg
- kcat [8]: 49 ± 2.4 s⁻¹
- kcat/Km [8]: 310000 M⁻¹ s⁻¹
- Km [9]: 430 ± 150 µM
- Vmax [9]: 2.1 ± 0.39 µmol/min/mg
- kcat [9]: 1.2 ± 0.22 s⁻¹
- kcat/Km [9]: 2700 M⁻¹ s⁻¹
- Km [10]: 240 µM
- Vmax [10]: 6.1 µmol/min/mg

B2: Phos2680 (Drosophila melanogaster) (protein)
chain: MSPPRHILKLSLEEQRQFIDSFDLVISDCDGVVWLLVGWIPNTGAAVNALKAAGKQIKFVSNNSFRSEEDYMEKFRHIGAKNVQEDDIVHPVKTIVRYLKKHKPGERVYSLMSLEANETLRKHNIEFESLQVKEHLTAASLVDHLAIEKPVGAVLFDIHLDLSYVELAKAIRHLQENDDCQLIAGGSDVIMPLAENLNVAGFFDFLEHVKRYTQREATFLGKPSPILGEMFGEMFEIRDCKRCIFIGDTLVQDVQFGKACGFQSLLVLSGCLTKEDMLNAPVEAQPDYYADSLADFTQLLENIQK
- Km [11]: 640 µM
- Vmax [11]: 36 µmol/min/mg
- Km ([6]; other: substrate of Phos2680): 35 µM
- Vmax ([6]; other: substrate of Phos2680): 59 µmol/min/mg

— PMC2657470 (Biochemical and biophysical research communications, 2009)
